Tests used:
[1] = system: IscR-C92A (apo-locked) (Escherichia coli); experiment: EMSA
[2] = system: Fur (Mn2+-Fur) (Escherichia coli); experiment: EMSA

Row | Substance | binding [1] [nM] | binding [2] [nM]
1 | control DNA in 3' end of hmuR coding region | 250 | 
2 | hmuR-hmuS intergenic, larger fragment | 62.5 | 
3 | hmuR promoter (p1) |  | 31.2
